In patent publication US20070292434A1 (VIB VZW, published 2007):

Tests used:
[1] = biological target: the molecule itself; test: non-reducing anti-FLAG Western blot of COS-1 supernatant (self-association)
Text: Panel A: The plasmid encoding FNIII-FLAG-His was transfected in COS-1 cells. Supernatant was subjected to Western blot analysis under reducing (R) or non-reducing (NR) conditions with an anti-FLAG antibody.
Panel A: Plasmid pMET7 CRH2-FLAG-His was transiently transfected in COS-1 cells. Supernatant was subjected to Western blot analysis with an anti-FLAG antibody under reducing (R) and non-reducing (NR) conditions.
We next analyzed the ligand-independent clustering of the FNIII domains in more detail. Constructs were generated to produce secreted forms of the FNIII domains, either as a FLAG-His-, or as a SEAP-FLAG-tagged protein. When FNIII-FLAG-His was expressed in COS-1 cells and analyzed under non-reducing conditions, di-, tri- and even higher order clusters were observed (FIG. 2, panel A). This clustering is independent of protein concentration since transfection with smaller amounts of expression vector gave the same clustering pattern. To confirm this FNIII-clustering, we set up a His/SEAP co-precipitation experiment. In this assay, FNIII-SEAP-FLAG proteins were co-expressed with FNIII-FLAG-His, or with empty vector as a negative control. Supernatants were analyzed in a precipitation experiment with a Ni²⁺ affinity resin. Co-precipitated SEAP activity reflects interaction between the proteins. FIG. 2, panel B clearly confirms homotypic interaction of the FNIII domain.

[2] = biological target: the molecule itself; test: non-reducing anti-FLAG Western blot of secreted protein (self-association)
[3] = biological target: the molecule itself; test: non-reducing anti-FLAG Western blot of COS-1 lysates (self-association)
Text: Panel A: Plasmids encoding (1) mLR ΔCRH1, ΔIg, ΔCRH2; (2) mLR ΔCRH1, ΔIg, ΔCRH2 cys672ser; (3) mLR ΔCRH1, ΔIg, ΔCRH2 cys751ser; (4) mLR ΔCRH1, ΔIg, ΔCRH2 cys672,751ser were transiently transfected in COS-1 cells. Transfected cells were lyzed in a reducing (R) or non-reducing (NR) loading buffer. Lysates were loaded on a SDS-PAGE gel, blotted to a nitro-cellulose membrane and subjected to Western blot with an anti-FLAG antibody.

| Protein | binding result [1] | binding result [2] | binding result [3] |
| --- | --- | --- | --- |
| FNIII-FLAG-His (receptor, murine, UniProt P48356 637-839, looked up, not shown: small tags and cut ends, domain: FNIII domains; Secreted from COS-1 or Hek293T cells; runs as di-, tri- and higher order disulphide-linked clusters under non-reducing conditions; also called mLR FNIII-FLAG-His; soluble FNIII domains) PMRGPEFWRKMDGDVTKKERNVTLLWKPLTKNDSLCSVRRYVVKHRTAHNGTWSEDVGNRTNLTFLWTEPAHTVTVLAVNSLGASLVNFNLTFSWPMSKVSAVESLSAYPLSSSCVILSWTLSPDDYSLLYLVIEWKILNEDDGMKWLRIPSNVKKFYIHDNFIPIEKYQFSLYPVFMEGVGKPKIINGFTKDAIDKQQNDAG | binds |  |  |
| FNIII-FLAG-His cys672ser (receptor, murine, UniProt P48356 637-839, looked up, not shown: small tags and cut ends, domain: FNIII domains) PMRGPEFWRKMDGDVTKKERNVTLLWKPLTKNDSLSSVRRYVVKHRTAHNGTWSEDVGNRTNLTFLWTEPAHTVTVLAVNSLGASLVNFNLTFSWPMSKVSAVESLSAYPLSSSCVILSWTLSPDDYSLLYLVIEWKILNEDDGMKWLRIPSNVKKFYIHDNFIPIEKYQFSLYPVFMEGVGKPKIINGFTKDAIDKQQNDAG |  | binds |  |
| FNIII-FLAG-His cys751ser (receptor, murine, UniProt P48356 637-839, looked up, not shown: small tags and cut ends, domain: FNIII domains) PMRGPEFWRKMDGDVTKKERNVTLLWKPLTKNDSLCSVRRYVVKHRTAHNGTWSEDVGNRTNLTFLWTEPAHTVTVLAVNSLGASLVNFNLTFSWPMSKVSAVESLSAYPLSSSSVILSWTLSPDDYSLLYLVIEWKILNEDDGMKWLRIPSNVKKFYIHDNFIPIEKYQFSLYPVFMEGVGKPKIINGFTKDAIDKQQNDAG |  | binds |  |
| CRH2-FLAG-His (receptor, murine, UniProt P48356 428-635, looked up, not shown: small tags and cut ends, domain: CRH2; Expressed as a reduction-sensitive oligomeric complex; also called mLR CRH2-FLAG-His; soluble CRH2 domain) VNINISCETDGYLTKMTCRWSPSTIQSLVGSTVQLRYHRRSLYCPDSPSIHPTSEPKNCVLQRDGFYECVFQPIFLLSGYTMWIRINHSLGSLDSPPTCVLPDSVVKPLPPSNVKAEITVNTGLLKVSWEKPVFPENNLQFQIRYGLSGKEIQWKTHEVFDAKSKSASLLVSDLCAVYVVQVRCRRLDGLGYWSNWSSPAYTLVMDVK | binds |  |  |
| mLR ΔCRH1, ΔIg, ΔCRH2 cys751ser (receptor, murine, UniProt P48356 637-1162, looked up, not shown: small tags and cut ends, domain: FNIII, transmembrane and cytoplasmic domains (CRH1, Ig and CRH2 deleted); also called single cys751ser mutant receptor) PMRGPEFWRKMDGDVTKKERNVTLLWKPLTKNDSLCSVRRYVVKHRTAHNGTWSEDVGNRTNLTFLWTEPAHTVTVLAVNSLGASLVNFNLTFSWPMSKVSAVESLSAYPLSSSSVILSWTLSPDDYSLLYLVIEWKILNEDDGMKWLRIPSNVKKFYIHDNFIPIEKYQFSLYPVFMEGVGKPKIINGFTKDAIDKQQNDAGLYVIVPIIISSCVLLLGTLLISHQRMKKLFWDDVPNPKNCSWAQGLNFQKPETFEHLFTKHAESVIFGPLLLEPEPISEEISVDTAWKNKDEMVPAAMVSLLLTTPDPESSSICISDQCNSANFSGSQSTQVTCEDECQRQPSVKYATLVSNDKLVETDEEQGFIHSPVSNCISSNHSPLRQSFSSSSWETEAQTFFLLSDQQPTMISPQLSFSGLDELLELEGSFPEENHREKSVCYLGVTSVNRRESGVLLTGEAGILCTFPAQCLFSDIRILQERCSHFVENNLSLGTSGENFVPYMPQFQTCSTHSHKIMENKMCDLTV |  |  | binds |
| mLR ΔCRH1, ΔIg, ΔCRH2 cys672ser (receptor, murine, UniProt P48356 637-1162, looked up, not shown: small tags and cut ends, domain: FNIII, transmembrane and cytoplasmic domains (CRH1, Ig and CRH2 deleted)) PMRGPEFWRKMDGDVTKKERNVTLLWKPLTKNDSLSSVRRYVVKHRTAHNGTWSEDVGNRTNLTFLWTEPAHTVTVLAVNSLGASLVNFNLTFSWPMSKVSAVESLSAYPLSSSCVILSWTLSPDDYSLLYLVIEWKILNEDDGMKWLRIPSNVKKFYIHDNFIPIEKYQFSLYPVFMEGVGKPKIINGFTKDAIDKQQNDAGLYVIVPIIISSCVLLLGTLLISHQRMKKLFWDDVPNPKNCSWAQGLNFQKPETFEHLFTKHAESVIFGPLLLEPEPISEEISVDTAWKNKDEMVPAAMVSLLLTTPDPESSSICISDQCNSANFSGSQSTQVTCEDECQRQPSVKYATLVSNDKLVETDEEQGFIHSPVSNCISSNHSPLRQSFSSSSWETEAQTFFLLSDQQPTMISPQLSFSGLDELLELEGSFPEENHREKSVCYLGVTSVNRRESGVLLTGEAGILCTFPAQCLFSDIRILQERCSHFVENNLSLGTSGENFVPYMPQFQTCSTHSHKIMENKMCDLTV |  |  | binds |
